Measurements as given in patent US20220378912A1 (Novartis, published 2022).

T1: recombinant human P-selectin (human, UniProt P16109 42-771, limits assumed)
T1 construct: Coated on ELISA plates
T1 sequence (looked up): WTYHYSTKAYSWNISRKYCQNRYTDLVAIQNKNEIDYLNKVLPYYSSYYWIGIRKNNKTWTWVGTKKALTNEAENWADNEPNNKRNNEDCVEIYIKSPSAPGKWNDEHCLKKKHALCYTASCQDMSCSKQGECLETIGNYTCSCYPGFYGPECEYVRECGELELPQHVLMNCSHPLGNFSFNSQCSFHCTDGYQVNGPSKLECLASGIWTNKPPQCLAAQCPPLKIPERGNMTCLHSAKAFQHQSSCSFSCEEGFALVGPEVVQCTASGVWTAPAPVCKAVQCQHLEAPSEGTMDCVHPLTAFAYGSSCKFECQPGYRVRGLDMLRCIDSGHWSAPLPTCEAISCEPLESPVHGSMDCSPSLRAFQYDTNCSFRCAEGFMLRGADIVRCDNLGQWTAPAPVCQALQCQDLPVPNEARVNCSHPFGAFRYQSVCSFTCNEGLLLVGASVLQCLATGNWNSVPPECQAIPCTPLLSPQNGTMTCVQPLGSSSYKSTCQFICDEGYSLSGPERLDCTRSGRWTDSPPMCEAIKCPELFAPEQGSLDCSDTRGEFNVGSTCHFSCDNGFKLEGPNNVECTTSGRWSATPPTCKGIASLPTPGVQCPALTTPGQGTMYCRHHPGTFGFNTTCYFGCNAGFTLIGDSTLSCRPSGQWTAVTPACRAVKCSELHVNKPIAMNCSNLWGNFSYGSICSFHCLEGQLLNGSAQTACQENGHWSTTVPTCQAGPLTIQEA

T2: P-selectin fused to immunoglobulin (Psel-Ig) (UniProt P16109 42-771, limits assumed)
T2 construct: also called spiked P-selectin; not shown: immunoglobulin part of the fusion
T2 sequence (looked up): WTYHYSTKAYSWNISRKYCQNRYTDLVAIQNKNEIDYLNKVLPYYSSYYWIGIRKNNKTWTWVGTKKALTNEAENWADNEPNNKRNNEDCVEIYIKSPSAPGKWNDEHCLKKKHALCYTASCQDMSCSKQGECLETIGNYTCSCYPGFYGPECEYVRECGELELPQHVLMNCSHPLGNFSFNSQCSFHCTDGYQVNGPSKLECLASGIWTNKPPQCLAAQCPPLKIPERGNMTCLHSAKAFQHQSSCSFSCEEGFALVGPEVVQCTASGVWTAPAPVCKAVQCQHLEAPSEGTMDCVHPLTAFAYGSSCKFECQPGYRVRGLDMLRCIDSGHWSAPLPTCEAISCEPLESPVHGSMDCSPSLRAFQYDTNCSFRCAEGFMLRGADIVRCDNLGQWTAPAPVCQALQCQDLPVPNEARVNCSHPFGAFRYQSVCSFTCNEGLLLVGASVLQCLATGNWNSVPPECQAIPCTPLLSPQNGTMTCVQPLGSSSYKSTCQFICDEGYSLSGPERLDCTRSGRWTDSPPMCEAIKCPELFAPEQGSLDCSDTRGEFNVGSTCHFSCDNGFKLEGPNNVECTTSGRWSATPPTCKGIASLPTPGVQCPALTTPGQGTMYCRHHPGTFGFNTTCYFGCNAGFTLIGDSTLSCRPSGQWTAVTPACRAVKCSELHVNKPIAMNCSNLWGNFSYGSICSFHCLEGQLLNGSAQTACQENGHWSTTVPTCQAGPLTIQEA


What was measured:
[1] = target: T1, recombinant human P-selectin; assay: P-selectin binding assay of Example 2 (ELISA), relative %; CZE peak comprising the variant
Procedure: In the ELISA, potency and identity of SEG101 samples are measured based on their ability to bind recombinant human P-selectin. ELISA plates are coated with recombinant human P-selectin, and graded amounts of SEG101 are added. Bound SEG101 is quantified using an anti-human IgG antibody coupled to horseradish peroxidase followed by the addition of a colorimetric substrate. Results of the colorimetric reaction are measured by light absorption. The potency of a SEG101 test sample is quantified by comparing its ability to bind P-selectin to that of a SEG101 reference standard. The samples and the standard are normalized on the basis of protein content. Relative potency is calculated using a parallel line assay according to the European Pharmacopoeia. The final result is expressed as relative potency (in percent) of a sample compared to the reference standard.

[2] = target: T2, P-selectin fused to immunoglobulin …; assay: SPR competition: dilution series of crizanlizumab and any variants thereof inhibiting Psel-Ig binding to immobilised biotinylated GSP-6 (standard inhibition curve)
Procedure: An SPR-based method was used to measure ex vivo % P-selectin inhibition of crizanlizumab in human serum samples from human donors treated with crizanlizumab. This PD assay measured the ability of crizanlizumab and it variants in serum to block P-selectin (antigen; ligand) binding to PSGL-1 (ligand receptor). Blockage by crizanlizumab and any variants thereof was measured as % inhibition of spiked P-selectin fused to immunoglobulin (Psel-Ig) binding to glycosulfopeptide 6 (GSP-6), a peptide analogue mimicking the PSGL-1 binding domain. For example, streptavidin was immobilized on 2 channels (FC-2 and FC-3) of the used biosensor chip using standard amine coupling followed by injection of biotinylated GSP-6 to immobilize the peptide for analysis. A reference channel (FC-1) was prepared by biotin-blocking streptavidin. The pre-treatment samples established the maximum binding for each subject and this was used as the basis for calculating % inhibition using the post-dose serum samples from the subject at various time points. Quantified crizanlizumab and any variants thereof in a series of dilutions were used to generate standard inhibitition curve, showing an IC₅₀ value of 5.2 μg/mL for crizanlizumab under all conditions.

Binder	P-selectin binding affinity [%] [1] [%]	IC50 [2] [µg/mL]
D-succinimide of crizanlizumab (antibody, human IgG2, kappa, succinimide at position 32, One light chain with succinimide, the other with aspartic acid at position 32; also called D-Succi-crizanlizumab) heavy: QVQLVQSGAEVKKPGASVKVSCKVSGYTFTSYDINWVRQAPGKGLEWMGWIYPGDGSIKYNEKFKGRVTMTVDKSTDTAYMELSSLRSEDTAVYYCARRGEYGNYEGAMDYWGQGTLVTVSSASTKGPSVFPLAPCSRSTSESTAALGCLVKDYFPEPVTVSWNSGALTSGVHTFPAVLQSSGLYSLSSVVTVTSSNFGTQTYTCNVDHKPSNTKVDKTVERKCCVECPPCPAPPVAGPSVFLFPPKPKDTLMISRTPEVTCVVVDVSHEDPEVQFNWYVDGMEVHNAKTKPREEQFNSTFRVVSVLTVVHQDWLNGKEYKCAVSNKGLPAPIEKTISKTKGQPREPQVYTLPPSREEMTKNQVSLTCLVKGFYPSDIAVEWESNGQPENNYKTTPPMLDSDGSFFLYSKLTVDKSRWQQGNVFSCSVMHEALHNHYTQKSLSLSPGK light 1: DIQMTQSPSSLSASVGDRVTITCKASQSVDYDGHSYMNWYQQKPGKAPKLLIYAASNLESGVPSRFSGSGSGTDFTLTISSLQPEDFATYYCQQSDENPLTFGGGTKVEIKRTVAAPSVFIFPPSDEQLKSGTASVVCLLNNFYPREAKVQWKVDNALQSGNSQESVTEQDSKDSTYSLSSTLTLSKADYEKHKVYACEVTHQGLSSPVTKSFNRGEC light 2: DIQMTQSPSSLSASVGDRVTITCKASQSVDYDGHSYMNWYQQKPGKAPKLLIYAASNLESGVPSRFSGSGSGTDFTLTISSLQPEDFATYYCQQSDENPLTFGGGTKVEIKRTVAAPSVFIFPPSDEQLKSGTASVVCLLNNFYPREAKVQWKVDNALQSGNSQESVTEQDSKDSTYSLSSTLTLSKADYEKHKVYACEVTHQGLSSPVTKSFNRGEC	78	
SEG101 (crizanlizumab), humanised monoclonal antibody against human P-selectin (antibody, human IgG2, kappa, V domains shown, also called SelG1; main peak) VH: QVQLVQSGAEVKKPGASVKVSCKVSGYTFTSYDINWVRQAPGKGLEWMGWIYPGDGSIKYNEKFKGRVTMTVDKSTDTAYMELSSLRSEDTAVYYCARRGEYGNYEGAMDYWGQGTLVTVSS VL: DIQMTQSPSSLSASVGDRVTITCKASQSVDYDGHSYMNWYQQKPGKAPKLLIYAASNLESGVPSRFSGSGSGTDFTLTISSLQPEDFATYYCQQSDENPLTFGGGTKVEIKR	90	5.2

The next lines start with the values.

P-selectin binding affinity [%] [1] [%]	IC50 [2] [µg/mL]	Binder
63		isoD-succinimide of crizanlizumab (antibody, human IgG2, kappa, isoaspartic acid at position 32; succinimide at position 32, One light chain with succinimide, the other with isoaspartic acid at position 32; also called isoD-Succi-crizanlizumab) heavy: QVQLVQSGAEVKKPGASVKVSCKVSGYTFTSYDINWVRQAPGKGLEWMGWIYPGDGSIKYNEKFKGRVTMTVDKSTDTAYMELSSLRSEDTAVYYCARRGEYGNYEGAMDYWGQGTLVTVSSASTKGPSVFPLAPCSRSTSESTAALGCLVKDYFPEPVTVSWNSGALTSGVHTFPAVLQSSGLYSLSSVVTVTSSNFGTQTYTCNVDHKPSNTKVDKTVERKCCVECPPCPAPPVAGPSVFLFPPKPKDTLMISRTPEVTCVVVDVSHEDPEVQFNWYVDGMEVHNAKTKPREEQFNSTFRVVSVLTVVHQDWLNGKEYKCAVSNKGLPAPIEKTISKTKGQPREPQVYTLPPSREEMTKNQVSLTCLVKGFYPSDIAVEWESNGQPENNYKTTPPMLDSDGSFFLYSKLTVDKSRWQQGNVFSCSVMHEALHNHYTQKSLSLSPGK light 1: DIQMTQSPSSLSASVGDRVTITCKASQSVDYDGHSYMNWYQQKPGKAPKLLIYAASNLESGVPSRFSGSGSGTDFTLTISSLQPEDFATYYCQQSDENPLTFGGGTKVEIKRTVAAPSVFIFPPSDEQLKSGTASVVCLLNNFYPREAKVQWKVDNALQSGNSQESVTEQDSKDSTYSLSSTLTLSKADYEKHKVYACEVTHQGLSSPVTKSFNRGEC light 2: DIQMTQSPSSLSASVGDRVTITCKASQSVDYDGHSYMNWYQQKPGKAPKLLIYAASNLESGVPSRFSGSGSGTDFTLTISSLQPEDFATYYCQQSDENPLTFGGGTKVEIKRTVAAPSVFIFPPSDEQLKSGTASVVCLLNNFYPREAKVQWKVDNALQSGNSQESVTEQDSKDSTYSLSSTLTLSKADYEKHKVYACEVTHQGLSSPVTKSFNRGEC
105		hetero-iso-crizanlizumab (antibody, human IgG2, kappa, isoaspartic acid at position 32, Aspartic acid at position 32 of only one light chain replaced by isoaspartic acid; also called iso-crizanlizumab (one light chain)) heavy: QVQLVQSGAEVKKPGASVKVSCKVSGYTFTSYDINWVRQAPGKGLEWMGWIYPGDGSIKYNEKFKGRVTMTVDKSTDTAYMELSSLRSEDTAVYYCARRGEYGNYEGAMDYWGQGTLVTVSSASTKGPSVFPLAPCSRSTSESTAALGCLVKDYFPEPVTVSWNSGALTSGVHTFPAVLQSSGLYSLSSVVTVTSSNFGTQTYTCNVDHKPSNTKVDKTVERKCCVECPPCPAPPVAGPSVFLFPPKPKDTLMISRTPEVTCVVVDVSHEDPEVQFNWYVDGMEVHNAKTKPREEQFNSTFRVVSVLTVVHQDWLNGKEYKCAVSNKGLPAPIEKTISKTKGQPREPQVYTLPPSREEMTKNQVSLTCLVKGFYPSDIAVEWESNGQPENNYKTTPPMLDSDGSFFLYSKLTVDKSRWQQGNVFSCSVMHEALHNHYTQKSLSLSPGK light 1: DIQMTQSPSSLSASVGDRVTITCKASQSVDYDGHSYMNWYQQKPGKAPKLLIYAASNLESGVPSRFSGSGSGTDFTLTISSLQPEDFATYYCQQSDENPLTFGGGTKVEIKRTVAAPSVFIFPPSDEQLKSGTASVVCLLNNFYPREAKVQWKVDNALQSGNSQESVTEQDSKDSTYSLSSTLTLSKADYEKHKVYACEVTHQGLSSPVTKSFNRGEC light 2: DIQMTQSPSSLSASVGDRVTITCKASQSVDYDGHSYMNWYQQKPGKAPKLLIYAASNLESGVPSRFSGSGSGTDFTLTISSLQPEDFATYYCQQSDENPLTFGGGTKVEIKRTVAAPSVFIFPPSDEQLKSGTASVVCLLNNFYPREAKVQWKVDNALQSGNSQESVTEQDSKDSTYSLSSTLTLSKADYEKHKVYACEVTHQGLSSPVTKSFNRGEC
119		homo-iso-crizanlizumab (antibody, human IgG2, kappa, V domains shown, isoaspartic acid at position 32, Aspartic acid at position 32 of both light chains replaced by isoaspartic acid; also called iso-crizanlizumab (both light chains)) VH: QVQLVQSGAEVKKPGASVKVSCKVSGYTFTSYDINWVRQAPGKGLEWMGWIYPGDGSIKYNEKFKGRVTMTVDKSTDTAYMELSSLRSEDTAVYYCARRGEYGNYEGAMDYWGQGTLVTVSS VL: DIQMTQSPSSLSASVGDRVTITCKASQSVDYDGHSYMNWYQQKPGKAPKLLIYAASNLESGVPSRFSGSGSGTDFTLTISSLQPEDFATYYCQQSDENPLTFGGGTKVEIKR
